From patent US20210032331A1 (PHANES THERAPEUTICS, published 2021) come the findings set out here.

One assay concerns the target T1, B5/IgG4.
T1 construct: Chimeric: mouse VH and VL with human IgG4 heavy chain and kappa light chain constant regions; also called B5 (human IgG4 heavy chain and kappa light chain chimeric)
Kind of assay: ELISA peptide competition: peptide preincubated with B5/IgG4, competitor hLAG3-mFc; peptide at 600-fold hLAG3-mFc; capture on anti-human IgG, anti-mouse IgG-HRP. The method, then:
(§1) FIGS. 5A-5D show the effect of competition peptides on LAG-3 binding to anti-LAG-3 mAbs. […] B5/IgG4 was preincubated with a competition peptide for 30 minutes. Then human LAG-3 extracellular domain (ECD) fused to mouse Fc (hLAG3-mFc) was added (the final peptide concentration was 600-fold that of hLAG3-mFc) and the mixture was incubated for 60 minutes before being added to an ELISA plate coated with anti-human IgG. The incubation was carried out at 4° C. overnight. After washing, the hLAG3-mFc bound to the immobilized B5/IgG4 on the ELISA plate was detected by adding anti-mouse IgG conjugated to horseradish peroxidase (HRP) and incubating for 60 minutes. Then, after washing, the ELISA was developed using One-step Detection Solution and measured as the absorbance at 450 nm.
(§2) Anti-human IgG in carbonate coating buffer was coated on an ELISA plate at 4° C. (50 μL/well at 1 μg/mL) overnight. In each well of a separate plate, a chimeric version of a given anti-LAG-3 mAb (50 μL/well at 1.4 nM) and a competition peptide (50 μL/well at various concentrations as indicated in the figures) were mixed and incubated for 30 minutes at room temperature. Then human LAG-3 extracellular domain (ECD) fused to mouse Fc (hLAG3-mFc) was added to each well (50 μL/well at 2 nM) and the final mixture was incubated at room temperature for 60 minutes before added to the ELISA plate (50 μL/well) for another 60-minute incubation. The final incubation after adding the mixture to the ELISA plate was also performed at 4° C. overnight in some assays. The plate was washed and the binding of hLAG3-mFc to the immobilized anti-LAG-3 mAb was detected by adding anti-mouse IgG conjugated to horseradish peroxidase ([…]) (ThermoFisher Scientific, Cat#: A16084; Waltham, Mass.) and incubating for 60 minutes.

Assay [1] deals with T2, B12 (human IgG1 heavy chain and kappa light chain chimeric).
T2 construct: Chimeric: mouse VH and VL with human IgG1 heavy chain and kappa light chain constant regions
T2 sequence (VH, as listed by the source): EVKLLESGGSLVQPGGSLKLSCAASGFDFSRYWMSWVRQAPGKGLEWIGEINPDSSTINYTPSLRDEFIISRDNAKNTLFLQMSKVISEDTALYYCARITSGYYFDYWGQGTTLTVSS
The assay is described as follows: ELISA peptide competition: peptide preincubated with chimeric IgG1 B12, competitor hLAG3-mFc; peptide at 600-fold hLAG3-mFc; capture on anti-human IgG, anti-mouse IgG-HRP. On the procedure:
as §1, §2
Background: An ELISA detects its analyte on a solid surface through an enzyme-linked reagent.

The target in the next assay is T3, human LAG-3(ECD)-mFc (human, UniProt P18627 23-450).
T3 construct: also called hLAG3-mFc; human LAG-3 extracellular domain (ECD) fused to mouse Fc; not shown: mouse Fc
T3 sequence: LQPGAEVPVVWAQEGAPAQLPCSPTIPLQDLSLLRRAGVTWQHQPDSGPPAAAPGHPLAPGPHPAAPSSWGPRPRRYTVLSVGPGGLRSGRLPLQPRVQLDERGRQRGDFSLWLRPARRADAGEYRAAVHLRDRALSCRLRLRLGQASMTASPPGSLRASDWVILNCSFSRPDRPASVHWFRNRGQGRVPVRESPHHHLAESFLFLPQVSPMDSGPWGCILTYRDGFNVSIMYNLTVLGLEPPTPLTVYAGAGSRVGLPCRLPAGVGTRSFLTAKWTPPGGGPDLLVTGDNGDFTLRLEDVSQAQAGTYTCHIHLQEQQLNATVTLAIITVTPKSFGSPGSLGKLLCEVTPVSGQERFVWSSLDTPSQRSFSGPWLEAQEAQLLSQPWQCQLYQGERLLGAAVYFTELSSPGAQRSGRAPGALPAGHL
The assay is described as follows: FACS blocking assay: mAb preincubated with LAG-3(ECD)-mFc (1 µg/mL), blocked ligand MHC class II on Daudi cells, PE anti-mouse Fc. The method, then:
FIGS. 4A-4D show inhibition of human LAG-3 binding to MHC class II molecules by select anti-LAG-3 mAbs. An in vitro binding assay was performed using recombinant LAG-3(ECD)-mFc and Daudi cells which express human MHC class II molecules. […] The binding of LAG-3(ECD)-mFc to Daudi cells in the presence of anti-LAG-3 mAbs or a control mAb was analyzed by FACS.
Human Daudi cells were cultured in RPMI+10% FBS. Human LAG-3(ECD)-mFc protein (human LAG-3 ECD fused to mouse Fc) at 1 μg/ml final concentration was incubated with purified mouse, humanized, or chimeric anti-LAG-3 mAbs at various concentrations for 15 minutes at 4° C. The mixture was then added to 100,000 human Daudi cells in a 96-well round bottom plate, mixed and incubated for 15 minutes on ice. Cells were then centrifuged at 1,000 rpm for 5 minutes and washed with FACS buffer (PBS supplemented with 5% BSA) three times. The cells were then incubated with PE-conjugated goat anti-mouse Fc polyclonal antibodies on ice for 15 minutes, washed with FACS buffer three times and then resuspended in FACS buffer containing 0.1 μg/ml PI (propidine iodine) for live/dead cell gating. Cells were then run through the FACS Caliber instrument and the data were analyzed by the Flowjo software. Results of the inhibition of LAG-3 binding to Daudi cells by chimeric mAbs B1C, B3C, B4C, BSC, B9C, and B11C are shown in FIG. 4B.

Another assay concerns the target T4, human LAG-3(ECD)-huFc (human, UniProt P18627 23-450).
T4 construct: also called Fc-tagged human LAG-3(ECD)-huFc; not shown: human Fc (huFc) at the C-terminus
T4 sequence: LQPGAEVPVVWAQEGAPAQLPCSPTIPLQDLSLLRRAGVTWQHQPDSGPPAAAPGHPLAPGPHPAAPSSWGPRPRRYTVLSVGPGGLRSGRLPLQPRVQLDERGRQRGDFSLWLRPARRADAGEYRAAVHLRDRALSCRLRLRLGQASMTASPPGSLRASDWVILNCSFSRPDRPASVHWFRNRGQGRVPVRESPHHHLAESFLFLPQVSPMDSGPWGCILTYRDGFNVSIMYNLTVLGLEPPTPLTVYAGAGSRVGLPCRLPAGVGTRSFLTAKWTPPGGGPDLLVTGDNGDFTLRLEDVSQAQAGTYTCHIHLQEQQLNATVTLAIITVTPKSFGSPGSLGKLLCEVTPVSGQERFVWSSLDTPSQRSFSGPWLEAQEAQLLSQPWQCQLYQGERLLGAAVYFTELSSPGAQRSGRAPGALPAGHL
The assay is described as follows: SPR (Biacore): mAb from hybridoma supernatant captured on anti-mouse IgG CM5 chip, human LAG-3(ECD)-huFc 50-400 nM injected. On the procedure:
Anti-mouse IgG antibodies were immobilized via amine coupling on CM5 chip surface. Anti-LAG-3 mAbs in hybridoma supernatants were captured on the chip surface and a series of concentrations (50-400 nM) of human LAG-3(ECD)-huFc protein were injected and passed through the captured surface. The on and off rates for antibody-antigen binding were measured, curve fitted and calculated.

Another assay concerns the target T5, B7/IgG4.
T5 construct: Chimeric: mouse VH and VL with human IgG4 heavy chain and kappa light chain constant regions; also called B7 (human IgG4 heavy chain and kappa light chain chimeric)
Kind of assay: ELISA peptide competition: peptide preincubated with B7/IgG4, competitor hLAG3-mFc; peptide at 600-fold hLAG3-mFc; final incubation 60 min at room temperature; anti-mouse IgG-HRP. The method, then: B5/IgG4 was preincubated with a competition peptide for 30 minutes. Then human LAG-3 extracellular domain (ECD) fused to mouse Fc (hLAG3-mFc) was added (the final peptide concentration was 600-fold that of hLAG3-mFc) and the mixture was incubated for 60 minutes before being added to an ELISA plate coated with anti-human IgG. The incubation was carried out at 4° C. overnight. After washing, the hLAG3-mFc bound to the immobilized B5/IgG4 on the ELISA plate was detected by adding anti-mouse IgG conjugated to horseradish peroxidase (HRP) and incubating for 60 minutes. Then, after washing, the ELISA was developed using One-step Detection Solution and measured as the absorbance at 450 nm.
The assay condition is the same as in FIG. 5A except that the final incubation of the mAb, the competition peptide, and hLAG3-mFc on the ELISA plate was performed at room temperature for 60 minutes instead of incubation at 4° C. overnight.
Anti-human IgG in carbonate coating buffer was coated on an ELISA plate at 4° C. (50 μL/well at 1 μg/mL) overnight. In each well of a separate plate, a chimeric version of a given anti-LAG-3 mAb (50 μL/well at 1.4 nM) and a competition peptide (50 μL/well at various concentrations as indicated in the figures) were mixed and incubated for 30 minutes at room temperature. Then human LAG-3 extracellular domain (ECD) fused to mouse Fc (hLAG3-mFc) was added to each well (50 μL/well at 2 nM) and the final mixture was incubated at room temperature for 60 minutes before added to the ELISA plate (50 μL/well) for another 60-minute incubation.

B1: Q17 (peptide)
peptide: QPDSGPPAAAPGHPLAP
notes: also called peptide Q17
On to B1, for which the binding result (in the assay with B5/IgG4; in assay [1]) was “binds” each time.

B2: 1-19 (peptide)
peptide: GPPAAAPGHPLAPGPHPAA
notes: also called peptide 1-19
Consider B2, for which the binding result in assay [1] is listed as “binds”.

B3: BG29 (human IgG4 heavy chain and kappa light chain chimeric) (antibody, V domains shown)
VH: QIQLQQSGPEVVKPGASVRISCKASGYTFSDYHINWVKQKPGQGLEWIGWIYPGRGDPEYNEKFKGKATLTVDRSASTAYMQLSSLTSEDTSVYFCEIYYGNYIDYWGQGTTLTVSS
VL: DIVMTQAAPSVPVTPGESVSISCRSSKSLLHSDGKTYLYWFLQRPGQSPQRLIYYMSNLASGVPDRFSGRGSGTDFTLRISRVEAEDVGVYYCMQSLEYPWTFGGGTKLEIK
notes: Chimeric: mouse VH and VL with human IgG4 heavy chain and kappa light chain constant regions; also called chimeric BG29
As for B3, the “IC50 (read off the curve)” value with human LAG-3(ECD)-mFc is ~1 nM.

B4: B3 (antibody, V domains shown)
VH: QVQLQQPGAELLKPGASVKMSCKASGYTFTSYDIHWLKQTPGQGLEWIGAIYPENGDSSYSQKFKDKATLTADKSSNTAYIHLSSLTSEDSAVYYCARGGYYDYVWFPYWGQGTLVTVSA
VL: DVVMTQTPLSLPVSLGDQASISCRSSQSILYSNGYTYLEWYLQKPGQSPKLLIYGVSNRFSGVPDRFSGSGSGTDFTLKISRVESEDMGVYYCFQGTHVPLTFGAGTKLELK
notes: Mouse mAb from hybridoma; also called mouse anti-LAG-3 mAb B3
In the assay with human LAG-3(ECD)-huFc, B4 registered a Kd of 1.53 nM.

B5: B4 (antibody, V domains shown)
VH: QVQLQQPGAELLKPGASVKMSCKASGYTFTSYDIHWLKQTPGQGLEWIGAIYPENGDSSYSQKFKGKATLTADKSSNTAYIHLSSLTSEDSAVYYCARGGYFDYVWFPYWGQGTLVTVSA
VL: DVVMTQTPLSLPVSLGDQASISCRSSQSIVYSNGYTYLEWYLQKPGQSPKLLIYGVSNRFSGVPDRFSGSGSGTDFTLKISRVEAEDMGVYYCFQGTHVPLTFGAGTKLELK
notes: Mouse mAb from hybridoma; also called mouse anti-LAG-3 mAb B4
Take B5: binding with human LAG-3(ECD)-huFc was characterised by a dissociation constant (Kd) of 0.217 nM.

B6: 15-28 (peptide)
peptide: PHPAAPSSWGPRPR
notes: also called peptide 15-28
As for B6, the binding result with B7/IgG4 is reported as “binds”.

B7: 17-30 (peptide)
peptide: PAAPSSWGPRPRRY
notes: also called peptide 17-30
Consider B7, for which the binding result with B7/IgG4 was “binds”.

B8: D15 (peptide)
peptide: DSGPPAAAPGHPLAP
notes: also called peptide D15
On to B8, for which the binding result (in the assay with B5/IgG4; in assay [1]) was “binds” in each case.

B9: S14 (peptide)
peptide: SGPPAAAPGHPLAP
notes: also called peptide S14
For the molecule B9, the binding result (with B5/IgG4; in assay [1]) was “binds” throughout.

B10: 19-30 (peptide)
peptide: APSSWGPRPRRY
notes: also called peptide 19-30
As to B10, the binding result with B7/IgG4 was “binds”.

B11: B13 (antibody, V domains shown)
VH: EVMLVESGGGLVKPGGSLKVSCAASGFTFSIYAMCWVRQTPEKRLEWVATISSGGSNTYYPDSVKGRFTISRDNAKNTLYLQMSSLRSEDTAVYYCARGDVYYDYDGRGFDYWGQGTTLTVSS
VL: DIVMTQSPSSLTVTAGEKVTMSCKSSQSLLNSGNQKNYLTWYQQKPGQPPKMLIYWASTRESGVPERFTGSGSGTDFTLTINSVQAEDMAIYYCQNDYGYPLAFGAGTRLELK
notes: Mouse mAb from hybridoma; also called mouse anti-LAG-3 mAb B13
Regarding B11, binding with human LAG-3(ECD)-huFc was put at a Kd of 8.17 nM.

B12: B1 (antibody, V domains shown)
VH: DVQLQESGPGLVKPSQSLSLTCTVTGYSITSDYAWNWIRQFPGNKLEWMGYIDYSGITSYNPSLKSRISITRDTSKNQFFLQLNSVTTEDTATYYCAREDHYDLAWFAYWGQGTLVTVSA
VL: DIQMTQTTSSLSASLGDRVTISCRASQDISNYLNWYQQKPDGTVKLLIYYTSRLHSGVPSRFSGSGSGTDYSLTISNLEPEDIATYYCHQYSNRPPTFGGGTKLEIK
notes: Mouse mAb from hybridoma; also called mouse anti-LAG-3 mAb B1
Take B12: in the assay with human LAG-3(ECD)-huFc, binding was put at a Kd of 1.21 nM.

B13: Q16 (peptide)
peptide: QPDSGPPAAAPGHPLA
notes: also called peptide Q16
Regarding B13, the binding result (with B5/IgG4; in assay [1]) was “binds” throughout.

B14: 15-27 (peptide)
peptide: PHPAAPSSWGPRP
notes: also called peptide 15-27
Take B14: in the assay with B7/IgG4, the binding result is given as “binds”.

B15: 2-12 (peptide)
peptide: PPAAAPGHPLA
notes: also called peptide 2-12
As to B15, the binding result with B5/IgG4 was “binds”.

B16: 18-30 (peptide)
peptide: AAPSSWGPRPRRY
notes: also called peptide 18-30
As to B16, the binding result with B7/IgG4 was “binds”.

B17: P16 (peptide)
peptide: PDSGPPAAAPGHPLAP
notes: also called peptide P16
On to B17, for which the binding result (with B5/IgG4; in assay [1]) was “binds” in each case.

B18: 15-29 (peptide)
peptide: PHPAAPSSWGPRPRR
notes: also called peptide 15-29
In the case of B18, the binding result with B7/IgG4 is recorded as “binds”.

Broadly, the Kd is the free concentration of one partner at which half of the binding sites on the other are occupied at equilibrium, for simple one-to-one binding. A low value points to higher affinity.
